Results: the RNAGym collection of RNA variant scans (doi:10.1093/nar/gkz1192)

B1: CPEB3 Ribozyme (parent)
chain: UAACAGGGGGCCACAGCAGAAGCGUUCACGUCGCAGCCCCUGUCAGAUUCUGGUGAAUCUGCGAAUUCUGCUGUAUAUCUC

Variants of: B1
Assay: self-cleavage, relative activity (ratio to wild type); higher = more cleavage; in vitro, sequencing
Outline: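 Barcoded CPEB3 ribozyme mutants, produced by rounds of error-prone PCR, self-cleaved while being transcribed with T7 RNA polymerase for 5 hours at 37°C and during a subsequent 15 min DNase I step before EDTA was added. Sequencing of template-switched cDNA on Illumina gave cleaved and total reads, and DNA sequencing assigned barcodes to variants. Each variant's relative activity is its cleaved/total read fraction divided by the unmutated ribozyme's fraction, averaged across three batches. A variant needed a minimum of 5 reads.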

Variant | self-cleavage
A2G A18U | 0.38
A2G A20G | 0.61
A2G A20U | 0.39
A2G A21C | 0.11
A2G A21G | 0.42
A2G A21U | 0.35
A2G A28C | 0.38
A2G A28G | 0.4
A2G A28U | 0.52
A2G A35G | 1.21
A2G A35U | 0.37
A2G A45C | 0.5
A2G A45G | 0.45
A2G A45U | 0.44
A2G A47C | 0.29
A2G A47G | 0.48
A2G A56G | 0.5
A2G A56U | 0.31
A2G A57G | 0.5
A2G A57U | 0.28
A2G A64G | 0.55
A2G A64U | 0.33
A2G A65G | 0.29
A2G A65U | 0.38

Variant | self-cleavage
A2G A75G | 0.54
A2G A75U | 0.84
A2G A77C | 0.54
A2G A77G | 0.64
A2G A77U | 0.62
A2G C4U | 1.09
A2G C11G | 0.15
A2G C11U | 0.51
A2G C12G | 0.38
A2G C12U | 1.04
A2G C14U | 0.49
A2G C17U | 0.56
A2G C27A | 0.36
A2G C27U | 0.4
A2G C29A | 0.13
A2G C29U | 0.24
A2G C32A | 0.1
A2G C32U | 0.3
A2G C34G | 0.1
A2G C34U | 0.29
A2G C37A | 0.27
A2G C37U | 0.66
A2G C38U | 0.68
A2G C39A | 0.09

Variant | self-cleavage
A2G C59A | 0.23
A2G C59G | 0.24
A2G C62A | 0.15
A2G C62U | 0.32
A2G C68A | 0.11
A2G C71U | 0.24
A2G C79A | 1.01
A2G C79U | 0.82
A2G C81U | 0.81
A2G G6A | 0.59
A2G G6U | 0.68
A2G G7U | 0.42
A2G G8A | 0.3
A2G G8U | 0.11
A2G G9A | 0.28
A2G G9U | 0.42
A2G G10A | 0.41
A2G G10U | 0.36
A2G G19A | 0.58
A2G G19U | 0.89
A2G G22A | 0.22
A2G G22U | 0.07
A2G G24A | 0.3
A2G G30A | 0.39

Variant | self-cleavage
A2G G30U | 0.69
A2G G33C | 0.32
A2G G33U | 0.3
A2G G36A | 0.16
A2G G36C | 0.24
A2G G42A | 0.05
A2G G42U | 0.55
A2G G46A | 0.28
A2G G46U | 0.3
A2G G52A | 0.65
A2G G52C | 0.83
A2G G52U | 0.77
A2G G53A | 0.66
A2G G53U | 0.72
A2G G61A | 0.31
A2G G63U | 0.62
A2G G70A | 0.16
A2G U25A | 0.36
A2G U25C | 0.49
A2G U26A | 0.53
A2G U26C | 0.4
A2G U26G | 0.18
A2G U31A | 0.43
A2G U31C | 0.41

Variant | self-cleavage
A2G U41A | 0.42
A2G U41C | 0.78
A2G U41G | 0.49
A2G U43A | 1.02
A2G U43C | 0.34
A2G U48A | 0.09
A2G U48C | 0.28
A2G U49A | 0.42
A2G U49C | 0.32
A2G U51A | 0.64
A2G U51C | 0.34
A2G U51G | 0.79
A2G U54A | 0.66
A2G U54C | 0.58
A2G U54G | 0.51
A2G U58C | 0.25
A2G U60A | 0.22
A2G U60C | 0.25
A2G U66C | 0.2
A2G U66G | 0.28
A2G U67A | 0.3
A2G U67C | 0.26
A2G U69A | 0.33
A2G U69C | 0.32

Variant | self-cleavage
A2G U69G | 0.46
A2G U72A | 0.36
A2G U72C | 0.74
A2G U72G | 0.42
A2G U74A | 1.07
A2G U74C | 1.12
A2G U74G | 1.01
A2G U76A | 0.73
A2G U76C | 0.73
A2G U78A | 0.75
A2G U78C | 0.58
A2G U80A | 0.77
A2G U80C | 0.69
A2G U80G | 0.17
A2U | 0.96
A2U A3G | 0.99
A2U A3U | 1.04
A2U A5G | 0.71
A2U A5U | 1.09
A2U A13G | 0.84
A2U A13U | 1.08
A2U A15G | 0.8
A2U A15U | 0.41
A2U A18C | 0.28

Variant | self-cleavage
A2U A18G | 0.89
A2U A18U | 0.41
A2U A20C | 0.32
A2U A20G | 0.69
A2U A20U | 0.41
A2U A21G | 0.56
A2U A21U | 0.29
A2U A28G | 0.65
A2U A28U | 0.82
A2U A35C | 0.85
A2U A35G | 1.19
A2U A35U | 0.49
A2U A45G | 0.85
A2U A45U | 0.54
A2U A47G | 1.11
A2U A56C | 0.73
A2U A56G | 0.88
A2U A56U | 0.4
A2U A57G | 0.83
A2U A64G | 0.83
A2U A64U | 0.28
A2U A65G | 0.26
A2U A65U | 0.29
